According to patent US20110318308A1, “LIPOCALIN-TYPE PROSTAGLANDIN D2 SYNTHASE AS A BIOMARKER FOR LUNG CANCER PROGRESSION AND PROGNOSIS” (WINTHROP-UNIVERSITY HOSPITAL, priority 2010, published 2011):
Entries after “also recorded” stand apart in the source; their conditions may differ.

What was measured:
A549 cells [1] = conditions: cited from earlier work
[2] = test system: mouse lung epithelial (MLE) cells; assay: MTS cell proliferation assay, control mouse lung epithelial (MLE) cells; assay type: cell-based; conditions: 18 h incubation
Method: (§1) The effect of exogenously added L-PGDS on lung cell growth in culture was determined by MTS proliferation assay (Promega, Madison, Wis.). […] MLE cell proliferation was unaffected at L-PGDS concentrations up to […] but ceased at a concentration of 25 mg/l and above, as shown in FIG. 6.
(§2) Cell proliferation was measured with the use of a CellTiter 96 AQeous Non-Radioactive Cell Proliferation Assay (Promega, Madison, Wis.). Briefly, cells were plated in 96-well plates at a density of 500 cells/well in 200 μl of medium with 5% FBS. The cells were incubated at 37° C. in a humidified 5% CO2 atmosphere for the indicated time, after which 20 μl of combined MTS/PMS solution (Promega) was added per well. After a 2 h incubation at 37° C., absorbance at 490 nm was measured using an enzyme-linked immunosorbent assay (ELISA) plate reader. Data represent the average absorbance of three experiments each performed in triplicate.

A549 cells [3] = assay: MTS cell proliferation assay, A549 cells with exogenously added L-PGDS; assay type: cell-based, human; conditions: for A549 hyperproliferation: exogenously added L-PGDS, qualitative statement
Method: as §1, §2
The effect of exogenously added L-PGDS on A549 proliferation was observed.

A549 cells [4] = assay: PDGF-stimulated trans-well migration assay, A549 cells; assay type: cell-based, human; conditions: for decrease in PGDF stimulated A549 migration: 5 h, trans-well inserts; for PDGF-stimulated migration of A549 cells: exogenously added L-PGDS, qualitative statement
Method: Migration assays were performed using 24-well cell culture inserts with 8.0 μm polyethylene terephthalate cyclopore membranes (Falcon) as detailed in Lundberg M S, Curto K A, Bilato C, Monticone R E, Crow M T. Regulation of vascular smooth muscle migration by mitogen-activated protein kinase and calcium/calmodulin-dependent protein kinase II signaling pathways. J Mol Cell Cardiol 1998; 30:2377-89. The underside of the membrane was coated with 100 μl rat tail collagen type I (50 μg/ml) for 18-20 h, washed and air-dried before each experiment. Cells were trypsinized and re-suspended in RPMI. Then 2×10^4 cells/250 μl were loaded into the cell culture inserts. The inserts were then added to the wells of 24-well plates which were filled with PDGF-BB diluted in RPMI with 0.1% BSA, and where indicated, L-PGDS was also added to this medium below the inserts.
The chambers were then incubated at 37° C. for 5 h to allow for cell migration. Afterwards, cells were completely removed from the upper side of the membrane with a cotton swab and the remaining migrated cells fixed and stained with Diff-Quik® solution (Dade Behring, Newark, Del.). Results are reported as the mean+/−SEM of five different fields, from three experiments, counted at 200× magnification.
The effect of L-PGDS on A549 migration was examined using trans-well inserts. FIG. 7 illustrates a 42% decrease in PGDF stimulated A549 migration in the presence of […] L-PGDS and a 77% decrease in the presence of […] L-PGDS. […] Cells were cultured and loaded into collagen coated […] cell culture inserts in the absence or presence of L-PGDS (25 or 50 μg/ml) as described above. Actual fields at 200× magnification are presented.

[5] = test system: Lipocalin-type prostaglandin D2 synthase (EC=5.3.99.2); conditions: alanine substitution in human L-PGDS; Zhou et al., FASEB J. 2010; cited from earlier work

**Q.** With `CCCCC/C=C/C=C1/C(=O)C=C[C@@H]1C/C=C\CCCC(=O)O` [15d-PGD2, 15-deoxy-Delta12,14-prostaglandin J2] as the molecule, how does the “role in PGD2-induced apoptosis in A549 cells” value (A549 cells [1]; PGD2 metabolites) read?
**A.** likely candidate for the principal apoptotic inducer

**Q.** With `CCCCC[C@H](O)/C=C/[C@H]1C(=O)C[C@H](O)[C@@H]1C/C=C\CCCC(=O)O` [PGD2, Prostaglandin D2] as the molecule, how does the “A549 cell death / apoptosis” value (A549 cells [1]; A549 cells treated with PGD2) read?
**A.** induces A549 cell death through the intrinsic apoptotic pathway

**Q.** And the “involvement of DP or CRTH2/DP2 in PGD2-induced A549 cell death” value (A549 cells [1]; DP and CRTH2/DP2 blocked with BWA868C and ramatroban)?
**A.** does not appear to involve either DP or CRTH2/DP2

B1: L-PGDS: Lipocalin-type prostaglandin D2 synthase protein, exogenously added to cultured cells (protein, UniProt P41222 23-190, looked up)
Prostaglandin-H2 D-isomerase: APEAQVSVQPNFQQDKFLGRWFSAGLASNSSWLREKKAALSMCKSVVAPATDGGLNLTSTFLRKNQCETRTMLLQPAGSLGSYSYRSPHWGSTYSVSVVETDYDQYALLYSQGSKGPGEDFRMATLYSRTQTPRAELKEKFTAFCKAQGFTEDTIVFLPQTDKCMTEQ
**Q.** For B1, which “L-PGDS concentration at which MLE cell proliferation ceased” value [2] is on record?
**A.** ≥ 25 mg/L

**Q.** What about the “L-PGDS concentrations at which MLE cell proliferation was unaffected” value [2] of the same molecule?
**A.** up to 10 mg/dl

**Q.** And the A549 cell proliferation (A549 cells [3]; L-PGDS 1-50 mg/l, 18 h incubation, MTS assay)?
**A.** marked inhibition

**Q.** What about the “A549 hyper-proliferative growth (OD490nm)” value (A549 cells [3]; exogenously added L-PGDS 0, 10, 25, 50 μg/ml, proliferation determined after 2 h) of the same molecule?
**A.** dose responsive inhibition

**Q.** And the A549 hyperproliferation (A549 cells [3])?
**A.** suppresses

**Q.** What about the A549 hyperproliferation (A549 cells [3]; listed as LPGDS) of the same molecule?
**A.** suppress

**Q.** And the “decrease in PGDF stimulated A549 migration” value (A549 cells [4]; 25 μg/μl L-PGDS)?
**A.** 42%

**Q.** What about the “decrease in PGDF stimulated A549 migration” value (A549 cells [4]; 50 μg/μl L-PGDS) of the same molecule?
**A.** 77%

**Q.** What about the A549 migration inhibition (A549 cells [4]; 100 μg/μl L-PGDS (data not shown)) of the same molecule?
**A.** no further increase in migration inhibition

**Q.** And the “PDGF-stimulated migration of A549 cells” value (A549 cells [4])?
**A.** suppresses; also recorded: inhibits

**Q.** And the “PDGF-stimulated migration of A549 cells” value (A549 cells [4]; listed as LPGDS)?
**A.** suppress

B2: 64 M→A: human L-PGDS with residue 64 M changed to A (protein, UniProt P41222 23-190, looked up, variant M64A)
Prostaglandin-H2 D-isomerase: APEAQVSVQPNFQQDKFLGRWFSAGLASNSSWLREKKAALSACKSVVAPATDGGLNLTSTFLRKNQCETRTMLLQPAGSLGSYSYRSPHWGSTYSVSVVETDYDQYALLYSQGSKGPGEDFRMATLYSRTQTPRAELKEKFTAFCKAQGFTEDTIVFLPQTDKCMTEQ
**Q.** Which “change of enzyme activity by sequence modification” value (“change of enzyme activity” for short) [5] does the source give for B2 here?
**A.** Reduces enzyme activity almost ten-fold

B3: 131 L→A: human L-PGDS with residue 131 L changed to A (protein, UniProt P41222 23-190, looked up, variant L131A)
Prostaglandin-H2 D-isomerase: APEAQVSVQPNFQQDKFLGRWFSAGLASNSSWLREKKAALSMCKSVVAPATDGGLNLTSTFLRKNQCETRTMLLQPAGSLGSYSYRSPHWGSTYSVSVVETDYDQYALAYSQGSKGPGEDFRMATLYSRTQTPRAELKEKFTAFCKAQGFTEDTIVFLPQTDKCMTEQ
**Q.** Which “change of enzyme activity” value [5] does the source give for B3 here?
**A.** Reduces enzyme activity almost ten-fold

B4: 59 K→A: human L-PGDS with residue 59 K changed to A (protein, UniProt P41222 23-190, looked up, variant K59A)
Prostaglandin-H2 D-isomerase: APEAQVSVQPNFQQDKFLGRWFSAGLASNSSWLREKAAALSMCKSVVAPATDGGLNLTSTFLRKNQCETRTMLLQPAGSLGSYSYRSPHWGSTYSVSVVETDYDQYALLYSQGSKGPGEDFRMATLYSRTQTPRAELKEKFTAFCKAQGFTEDTIVFLPQTDKCMTEQ
**Q.** With B4 as the molecule, how does the “change of enzyme activity” value [5] read?
**A.** Increases enzyme activity about two-fold

B5: 79 L→A: human L-PGDS with residue 79 L changed to A (protein, UniProt P41222 23-190, looked up, variant L79A)
Prostaglandin-H2 D-isomerase: APEAQVSVQPNFQQDKFLGRWFSAGLASNSSWLREKKAALSMCKSVVAPATDGGLNATSTFLRKNQCETRTMLLQPAGSLGSYSYRSPHWGSTYSVSVVETDYDQYALLYSQGSKGPGEDFRMATLYSRTQTPRAELKEKFTAFCKAQGFTEDTIVFLPQTDKCMTEQ
**Q.** For B5, which “change of enzyme activity” value [5] is on record?
**A.** Reduces enzyme activity over ten-fold

B6: 149 Y→A: human L-PGDS with residue 149 Y changed to A (protein, UniProt P41222 23-190, looked up, variant Y149A)
Prostaglandin-H2 D-isomerase: APEAQVSVQPNFQQDKFLGRWFSAGLASNSSWLREKKAALSMCKSVVAPATDGGLNLTSTFLRKNQCETRTMLLQPAGSLGSYSYRSPHWGSTYSVSVVETDYDQYALLYSQGSKGPGEDFRMATLASRTQTPRAELKEKFTAFCKAQGFTEDTIVFLPQTDKCMTEQ
**Q.** Which “change of enzyme activity” value [5] does the source give for B6 here?
**A.** Increases enzyme activity about two-fold

B7: 83 F→A: human L-PGDS with residue 83 F changed to A (protein, UniProt P41222 23-190, looked up, variant F83A)
Prostaglandin-H2 D-isomerase: APEAQVSVQPNFQQDKFLGRWFSAGLASNSSWLREKKAALSMCKSVVAPATDGGLNLTSTALRKNQCETRTMLLQPAGSLGSYSYRSPHWGSTYSVSVVETDYDQYALLYSQGSKGPGEDFRMATLYSRTQTPRAELKEKFTAFCKAQGFTEDTIVFLPQTDKCMTEQ
**Q.** With B7 as the molecule, how does the “change of enzyme activity” value [5] read?
**A.** Reduces enzyme activity about five-fold
